B1: RANK (SEQ ID NO:2) and RANK-L (SEQ ID NO:6): co-transfection of expression vectors encoding full-length human RANK and human full-length RANK-L (protein, listed as Homo sapiens)
chain 1: MAPRARRRRPLFALLLLCALLARLQVALQIAPPCTSEKHYEHLGRCCNKCEPGKYMSSKCTTTSDSVCLPCGPDEYLDSWNEEDKCLLHKVCDTGKALVAVVAGNSTTPRRCACTAGYHWSQDCECCRRNTECAPGLGAQHPLQLNKDTVCKPCLAGYFSDAFSSTDKCRPWTNCTFLGKRVEHHGTEKSDAVCSSSLPARKPPNEPHVYLPGLIILLLFASVALVAAIIFGVCYRKKGKALTANLWHWINEACGRLSGDKESSGDSCVSTHTANFGQQGACEGVLLLTLEEKTFPEDMCYPDQGGVCQGTCVGGGPYAQGEDARMLSLVSKTEIEEDSFRQMPTEDEYMDRPSQPTDQLLFLTEPGSKSTPPFSEPLEVGENDSLSQCFTGTQSTVGSESCNCTEPLCRTDWTPMSSENYLQKEVDSGHCPHWAASPSPNWADVCTGCRNPPGEDCEPLVGSPKRGPLPQCAYGMGLPPEEEASRTEARDQPEDGADGRLPSSARAGAGSGSSPGGQSPASGNVTGNSNSTFISSGQVMNFKGDIIVVYVSQTSQEGAAAAAEPMGRPVQEETLARRDSFAGNGPRFPDPCGGPEGLREPEKASRPVQEQGGAKA
chain 2: MRRASRDYTKYLRGSEEMGGGPGAPHEGPLHAPPPPAPHQPPAASRSMFVALLGLGLGQVVCSVALFFYFRAQMDPNRISEDGTHCIYRILRLHENADFQDTTLESQDTKLIPDSCRRIKQAFQGAVQKELQHIVGSQHIRAEKAMVDGSWLDLAKRSKLEAQPFAHLTINATDIPSGSHKVSLSSWYHDRGWAKISNMTFSNGKLIVNQDGFYYLYANICFRHHETSGDLATEYLQLMVYVTKTSIKIPSSHTLMKGGSTKYWSGNSEFHFYSINVGGFFKLRSGEEISIEVSNPSLLDPDQDATYFGAFKVRDID
B2: RANK Δ340-421: human RANK (SEQ ID NO:2) with the TRAF6 binding site (amino acids 340-421) deleted (protein, listed as Homo sapiens)
chain: MAPRARRRRPLFALLLLCALLARLQVALQIAPPCTSEKHYEHLGRCCNKCEPGKYMSSKCTTTSDSVCLPCGPDEYLDSWNEEDKCLLHKVCDTGKALVAVVAGNSTTPRRCACTAGYHWSQDCECCRRNTECAPGLGAQHPLQLNKDTVCKPCLAGYFSDAFSSTDKCRPWTNCTFLGKRVEHHGTEKSDAVCSSSLPARKPPNEPHVYLPGLIILLLFASVALVAAIIFGVCYRKKGKALTANLWHWINEACGRLSGDKESSGDSCVSTHTANFGQQGACEGVLLLTLEEKTFPEDMCYPDQGGVCQGTCVGGGPYAQGEDARMLSLVSKTEIEEDSLQKEVDSGHCPHWAASPSPNWADVCTGCRNPPGEDCEPLVGSPKRGPLPQCAYGMGLPPEEEASRTEARDQPEDGADGRLPSSARAGAGSGSSPGGQSPASGNVTGNSNSTFISSGQVMNFKGDIIVVYVSQTSQEGAAAAAEPMGRPVQEETLARRDSFAGNGPRFPDPCGGPEGLREPEKASRPVQEQGGAKA

What was measured:
[1] = system: mouse TRAP promoter (SEQ ID NO:12); assay: mouse TRAP promoter/luciferase reporter in 293/EBNA cells; assay type: cell-based; conditions: 24 hours after transfection, 0.4 ng RANK vector, 20 ng RANK-L vector
Description: (§1) This example describes the activation of the TRAP promoter. A 2.6 kb DNA fragment containing the human TRAP promoter was obtained by digesting the plasmid pBL2HT2.2 with the restriction endonuclease ApaI. The cloning of the human TRAP gene 5′ region and the construction of pBL2HT2.2 are fully described in Reddy et al. (Bone 16:587-593 (1995)). A DNA containing the mouse TRAP promoter (SEQ ID NO:12) and a DNA containing the murine MMP-9 promoter (SEQ ID NO:11) also were used for these experiments. DNAs containing the promoters were fused to the luciferase reporter gene. These promoter/reporter constructs were transfected into human 293/EBNA cells along with various combinations of expression vectors that encoded full-length human RANK (SEQ ID NO:2) and human full-length RANK-L proteins (SEQ ID NO:6).
For the mouse TRAP promoter (SEQ ID NO:12), 2×10^5 293/EBNA cells were transfected using DEAE/dextran with 40 ng of a plasmid encoding approximately 2 kb of the mouse TRAP promoter (SEQ ID NO:12) fused to a luciferase reporter, 20 ng of an expression vector encoding RANK-L (SEQ ID NO:6), and 0.4 ng of an expression vector encoding RANK (SEQ ID NO:2). Twenty four hours after transfection, luciferase activity in cell lysates was measured according to manufacturer's instructions (Promega) using a EG&G/Berthold luminometer. […]

human TRAP promoter = assay: human TRAP promoter/luciferase reporter in 293/EBNA cells; assay type: cell-based; conditions: 40 ng reporter
Description: as §1
For the human TRAP promoter, the 1.9 kb […] fragment containing the promoter activity isolated from the region upstream of the human TRAP gene (Reddy et al., 1995) was fused to a luciferase reporter and transfected (40 ng) into 293/EBNA cells. The combination of human RANK (SEQ ID NO:2) and human RANK-L (SEQ ID NO:6) increased reporter expression approximately 1.5 fold.

c-src tyrosine kinase = assay: c-src immune complex kinase assay in RANK −/− osteoclast precursors infected with RANK retrovirus; assay type: cell-based, mouse; conditions: cells differentiated after retroviral infection; background = uninfected RANK −/− cells
Description: Experiments were conducted in which DNA encoding wild-type or human RANK/TRAF6 binding mutant (RANK Δ340-421) was introduced into hematopoietic cells isolated from RANK −/− mice. Full-length and mutant human RANK DNAs were subcloned into the pBMNZ retroviral vector as previously described (Kinsella and Nolan, 1996, Human Gene Therapy 7:1405-1413). Infectious RANK-containing retrovirus was produced in 293-E Phoenix packaging cells as described (Kinsella and Nolan, 1996). Supernatants from these cells were used as a source of infectious virus particles.
The generation of the RANK −/− mice used in these assays has been described previously (Dougall et al., 1999). Spleen cells were isolated from 3-6 week old RANK−/− mice and enriched for osteoclast precursors by depleting the initial cell population of various types of cells other than osteoclast precursors. For this “depletion” step, the cells were incubated with biotinylated antibodies against CD3 (specific for T cells), Ter-119 (specific for erythrocytes), and GR-1 (specific for granulocytes). After the antibodies had bound to their respective target cells, streptavidin-conjugated magnetic beads were added to the culture, and the mixture of cells was passed over magnetic columns (MACS depletion columns; MILLTENNYI). […]
To induce c-src and F-actin rings, recombinant mRANK-L/leucine zipper protein was added to the cultures at a concentration of 1 μg/ml for various times after which the cells were lysed in a buffer containing 50 mM HEPES (pH 7.2), 10% glycerol, 250 mM NaCl and 1% Triton X-100. […] C-src activity in the immune complex was monitored using a commercially available assay kit (Upstate Biotechnology, Lake Placid, N.Y.). […] The phosphorylated substrate peptide was then separated from the residual labeled ATP using phosphocellulose paper and labeled peptide was quantified using a scintillation counter. […]

[2] = system: primary hematopoietic cells from the RANK −/− mice; assay: F-actin ring formation, phalloidin staining; assay type: cell-based, mouse; conditions: 5 days in 40 ng/ml CSF-1 and 200 ng/ml mRANK-L
Description: To detect F-actin rings, cells are fixed, such as by exposure to 3% paraformaldehyde, and visualized by staining cells with a fluorescent probe that binds specifically with actin. A suitable fluorescent tag is phalloidin, which can be obtained from Molecular Probes, Eugene, Oreg. The fluorescent signal is detected, for example, using a standard fluorescent microscope, and the number of cells having F-actin rings is visually quantified. An F-actin ring is identified as a continuous ring of F-actin at the periphery of a cell, and these distinct structures are visible through a microscope.
A procedure to detect F-actin rings was carried out as follows. Primary hematopoietic cells from the RANK −/− mice were infected with retroviral constructs encoding either the full-length human RANK cDNA or the RANK/TRAF6 binding mutant (RANK Δ340-421). Cells were cultured on LabTek Chamber slides with #1 borosilicate coverglasses (Nalge/Nunc). After incubation for 5 days in MEM containing 10% fetal bovine serum containing 40 ng/ml CSF-1 and 200 ng/ml mRANK-L. The media was aspirated, washed twice in PBS and then fixed in a solution of 3% paraformaldehyde for 10 minutes, followed by quenching in 50 mM NH4Cl. […] The fluorescent signal was detected using a standard fluorescent microscope, and F-actin rings were identified as continuous rings of F-actin at the periphery of individual cells.

[3] = system: spleen cells from RANK −/− mice; assay: CaPO4 resorption (pit formation) assay; assay type: cell-based, mouse; conditions: 5 days in 40 ng/ml CSF-1 and 200 ng/ml mRANK-L on CaPO4 film
Description: The resorption of CaPO4, upon which this assay is based, is considered to be a measure of osteoclast activity. Spleen cells were isolated from 3-6 week old RANK −/− mice and treated as described in Example 9 to remove cells expressing the CD3, Ter-119, and GR-1 antigens. Cells not expressing any of these antigens were harvested and infected as described in Example 9 with retroviral vector particles containing full-length or TRAF6 binding site deletion mutants of RANK.
Following infection, the spleen cells were harvested and plated in MEM containing 10% fetal bovine serum containing 40 ng/ml CSF-1 and 200 ng/ml mRANK-L onto 16 well quartz slides coated with a thin film of CaPO4 (Osteologic, BD Biosystems). After 5 days in culture, the slides were washed, the cells removed by washing with bleach, and the slides washed again with buffer. […] The number of pits in the CaPO4 film is a measure of the extent to which the RANK-L induced the cells grown on that slide to differentiate into osteoclasts.
If desired, the CaPO4 film can be stained using a 0.5% solution of alizarin red for 4 to 5 minutes followed by washing in water. After staining, the resorptive lacunae are visualized by phase contrast microscopy as a clear area on a red background.

| Molecule | increase of reporter expression (luciferase) [1] | increase of reporter expression (luciferase) (human TRAP promoter) | c-src activity (c-src tyrosine kinase) | cells with F-actin rings [2] | CaPO4 resorption [3] |
| --- | --- | --- | --- | --- | --- |
| B1 | approximately 4 fold | approximately 1.5 fold | – | – | – |
| B2 | – | – | not discernibly different from background levels | no F-actin rings were discerned | insignificant levels of CaPO4 resorption |
